B1: recombinant PH1704 protease from Pyrococcus horikoshii OT3 (enzyme, UniProt O59413 1-166, looked up)
chain: MKVLFLTANEFEDVELIYPYHRLKEEGHEVYIASFERGTITGKHGYSVKVDLTFDKVNPEEFDALVLPGGRAPERVRLNEKAVSIARKMFSEGKPVASICHGPQILISAGVLRGRKGTSYPGIKDDMINAGVEWVDAEVVVDGNWVSSRVPADLYAWMREFVKLLK
notes: PH1704 protease, Pyrococcus horikoshii OT3, gene amplified from genomic DNA with primers at the start and at the stop codon, cloned NdeI/BamHI into pET-15b; The tag is known from detection with an anti-His tag antibody; also called WT; source: E. coli BL21 (DE3), purified (heat incubation at 80°C, Sephacryl S-200); copies: 12
B2: PH1704 protease (Pyrococcus horikoshii OT3; Y120P) (protein)
chain: B1 chain with Y120P
notes: full-length gene in pET-15b (NdeI/BamHI), His-tag (detected by anti-His western blot), E. coli BL21(DE3); heat step and Sephacryl S-200
B3: PH1704 protease (Pyrococcus horikoshii OT3; Y120W) (protein)
chain: B1 chain with Y120W
notes: as for B2
B4: PH1704 protease (Pyrococcus horikoshii OT3; Y120S) (protein)
chain: B1 chain with Y120S
notes: as for B2

Changes are numbered by the printed parent chain. In names and notes the source's numbering stands.

Four proteins from PMC4156298, “Characterization of the PH1704 Protease from Pyrococcus horikoshii OT3 and the Critical Functions of Tyr120” (PLoS ONE, 2014) can be followed below.

By stoichiometry N is commonly meant the number of molecules, sites or subunits per partner or assembly. Broadly, the Km is the substrate concentration at which the rate is half of its maximum. In general, kcat refers to the number of substrate molecules converted per active site and unit of time at saturation. As usually defined, the kcat/Km is the second-order rate constant that governs catalysis at low substrate concentration.

The first series deals with the molecule itself. The series is described as follows: native gel or EMSA; non-denaturing PAGE (10% resolving gel, 5% stacking gel), Coomassie stain and anti-His western blot; size read against a high molecular weight protein marker.
Details: not given
B1: the “stoichiometry N” value came to 12.

Substrate in the next series: Cc1cc(=O)oc2cc(NC(=O)[C@@H](N)CCCNC(=N)N)ccc12
Briefly: fluorescence of released amc, Hill equation fit. It counts as biochemical, Pyrococcus horikoshii. Conditions: 50 mM sodium phosphate pH 7.5, 358 K, 60 min, aminopeptidase, 85.0 °C. An excerpt:
fluorescence of released amc, Hill equation fit on PH1704 protease
For the protein B1, the Km was 12 ± 0.65 µM, the kcat turned out to be 0.0108 ± 0.000833 s⁻¹ and the kcat/Km stood at 867 ± 133 M⁻¹ s⁻¹.

Regarding B2, the Km came to 11.3 ± 0.59 µM, the catalytic constant (kcat) was 0.0728 ± 0.002 s⁻¹ and the kcat/Km turned out to be 6630 ± 417 M⁻¹ s⁻¹.

B3: the Michaelis-Menten constant (Km) is 20.6 ± 0.77 µM, the catalytic constant (kcat) was 0.02 ± 0.00117 s⁻¹ and the kcat/Km worked out at 1100 ± 83.3 M⁻¹ s⁻¹.

Regarding B4, the Km stood at 9.0 ± 0.43 µM, the kcat was found to be 0.00245 ± 0.000167 s⁻¹ and the catalytic efficiency (kcat/Km) came to 400 ± 66.7 M⁻¹ s⁻¹.
